Results taken from the supplement of paper PMC9732359.
± gives the uncertainty stated by the source.

Test: protein stability index of a GFP-peptide fusion (yeast GPS) (PSI 1-4); higher = more stable; sorted into four equal gates, so the index is relative within each strain
How it was run: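 The protein stability index combines read frequencies across sorting gates, each weighted by its gate number and then summed. To obtain those frequencies, a pooled yeast library of GFP fusions to tiled 17-residue yeast protein peptides, on a plasmid also expressing Cherry, was grown to mid-log phase in leucine-free medium. The cells were sorted into four equal gates by GFP/Cherry ratio before plasmid amplification by PCR and Illumina sequencing.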

Sequence | protein stability index (doa10∆) | protein stability index (pdr5∆) | protein stability index (san1∆) | protein stability index (ubr1∆)
DNSEYSRNGDFPRTRFE [RPN10] | 3.13 ± 0.2 | 3.12 ± 0.22 | 3.45 ± 0.16 | 3.49 ± 0.17
ATADTTHLHEALDIVCS [NUT1] | 2.12 ± 0.056 | 2.55 ± 0.063 | 2.48 ± 0.12 | 2.69 ± 0.041
GFSTGIGDTIADGPTMR [RPO21] | 2.3 ± 0.13 | 3.15 ± 0.17 | 3.03 ± 0.094 | 2.99 ± 0.15
TAFNKTRGPFHFRAPSR [RPL16B] | 2.95 ± 0.09 | 3.14 ± 0.068 | 2.59 ± 0.066 | 3 ± 0.066
DVKVIMATNKIETLDPA [RPT2] | 3.17 ± 0.091 | 2.96 ± 0.093 | 2.92 ± 0.07 | 2.9 ± 0.068
PQKNVKIQVVDRHIGCV [PRE10] |  | 2.72 ± 0.27 |  | 
GNAKESKALLREISNFS [SRP72] | 2.97 ± 0.17 | 2.94 ± 0.13 | 2.7 ± 0.14 | 3.01 ± 0.15
LYGKRFFPYYVHTIIAG [PRE7] | 1.15 ± 0.032 | 1.23 ± 0.039 | 1.13 ± 0.11 | 1.14 ± 0.041
LMYSITFHHHGRQTVLI [SRB2] | 3 ± 0.07 | 3.18 ± 0.071 | 3.18 ± 0.06 | 3.12 ± 0.039
TKEMDEVEEDDEDDDQP [SWI3] | 3.39 ± 0.12 | 3.49 ± 0.068 | 3.48 ± 0.056 | 3.27 ± 0.066
MSFIFPSYAERQSSDES [YML031W/NDC1] | 2.58 ± 0.051 | 2.04 ± 0.048 | 2.74 ± 0.066 | 2.5 ± 0.046
DHKFPIRENKVTYSRVS [BRN1] | 2.75 ± 0.13 | 2.9 ± 0.11 | 3.01 ± 0.097 | 2.66 ± 0.087
DLKFKRHKNKHIQGFPT [DSN1] | 3.15 ± 0.13 | 3.38 ± 0.28 | 1.75 ± 0.12 | 2.98 ± 0.12
SMCGFEVRILPRQRMEE [PRP8] | 2.29 ± 0.057 | 1.87 ± 0.053 | 2.23 ± 0.063 | 2.24 ± 0.049
VKLLKTTVPIVSKKRQK [POP3] | 3.2 ± 0.1 | 2.95 ± 0.069 | 2.87 ± 0.083 | 2.74 ± 0.07
SRIYKTIKVAGTPLLEV [SNU114] | 2.21 ± 0.052 | 2.38 ± 0.055 | 2.03 ± 0.071 | 2.23 ± 0.053
PLLESFITFSLDDWISI [IRR1] | 3.04 ± 0.078 | 2.46 ± 0.063 | 2.5 ± 0.054 | 2.54 ± 0.052
LGKKKNVKEEETVAKSK [RPS8A] | 3.22 ± 0.052 | 3.31 ± 0.05 | 3.335 ± 0.031 | 3.25 ± 0.039
LNLEQVTLNKYCSGNIY [YJL039C/NUP192] | 2.37 ± 0.044 | 2.16 ± 0.048 | 2.59 ± 0.052 | 2.39 ± 0.046
TSAASGDAAPAEEAAAE [RPP0] |  | 3.44 ± 0.13 | 3.13 ± 0.14 | 3.34 ± 0.11
TASSEASAGSKEGASTN [YMR153W/NUP53] | 3.09 ± 0.2 | 3.23 ± 0.14 | 3.32 ± 0.16 | 3.39 ± 0.12
TNSNNTPLQSQLNLNNL [PGD1] | 3.01 ± 0.071 | 3.01 ± 0.059 | 3 ± 0.043 | 3.05 ± 0.042
GPENALNVYHYFGENSS [YJL039C/NUP192] | 2.05 ± 0.032 | 2.05 ± 0.042 | 2.06 ± 0.053 | 2.65 ± 0.031
CDLSSKFNKSKAKFTSL [YCS4] | 2.72 ± 0.055 | 2.79 ± 0.07 | 2.98 ± 0.05 | 2.64 ± 0.037
ASFNDTFVHVTDLSGKE [RPS14A] | 2.17 ± 0.097 | 1.36 ± 0.093 | 1.76 ± 0.22 | 1.15 ± 0.082
AARKAANKEKRAIILER [RPL7A] | 1.19 ± 0.051 | 1.37 ± 0.058 | 1.14 ± 0.078 | 1.27 ± 0.14
ANPAGASQPEPTTNEPA [YJL041W/NSP1] | 2.82 ± 0.12 | 3 ± 0.11 | 2.92 ± 0.1 | 3.16 ± 0.095

Sequence | protein stability index (doa10∆) | protein stability index (pdr5∆) | protein stability index (san1∆) | protein stability index (ubr1∆)
SYFYRRIHVNPSYYGVR [BRR2] | 1.5 ± 0.064 | 1.85 ± 0.057 | 1.61 ± 0.07 | 1.76 ± 0.029
DCLSFAPTLSQTYINQE [SSN2] | 2.69 ± 0.074 | 2.76 ± 0.081 | 2.77 ± 0.087 | 2.91 ± 0.048
KNDTHYLLPDDFHFSTD [BRN1] | 2.81 ± 0.072 | 3.19 ± 0.074 | 2.9 ± 0.055 | 2.95 ± 0.065
ASFGKNLQIRQLFNWCL [DSN1] | 1.2 ± 0.064 | 1.44 ± 0.051 | 1.29 ± 0.15 | 2.33 ± 0.12
RTPHEIQEANSVDMSAL [RIP1] |  | 3.46 ± 0.21 |  | 3.24 ± 0.076
SLAQNDCNSALDQLLVL [RPN5] | 2.15 ± 0.048 | 2.35 ± 0.053 | 2.15 ± 0.053 | 2.37 ± 0.05
MFGIRSGNNNGGFTNLT [YDL088C/ASM4] | 3.23 ± 0.085 | 3.41 ± 0.059 | 3.19 ± 0.054 | 3.4 ± 0.044
MEDPPSTVSGELNDNPA [YMR153W/NUP53] | 2.45 ± 0.081 | 2.81 ± 0.054 | 2.84 ± 0.077 | 2.83 ± 0.051
TLSNGLIASHYGVSFFT [BRR2] | 2.74 ± 0.055 | 2.84 ± 0.045 | 2.39 ± 0.059 | 2.83 ± 0.04
KEEISDQKPIEHIKEGS [SWI3] | 2.96 ± 0.053 | 2.82 ± 0.051 | 2.88 ± 0.063 | 3 ± 0.04
GLQNVRKVRTKKWKKYW [SWP82] | 3.6 ± 0.2 |  | 3.26 ± 0.25 | 
TGAYIANRVTDKLTRVH [PRE3] | 1.57 ± 0.068 | 1.76 ± 0.059 | 1.59 ± 0.083 | 1.54 ± 0.056
RFISDLLWLVLIHPENF [SWI1] | 1.82 ± 0.081 | 1.28 ± 0.092 | 1.86 ± 0.2 | 2.59 ± 0.18
DNYFNLQLNEAEEFVAG [SMX3] | 2.76 ± 0.16 | 2.8 ± 0.16 | 2.5 ± 0.1 | 3.12 ± 0.12
QGGFYKQQDAEELFTQL [UBP6] | 3.38 ± 0.078 | 3.44 ± 0.12 | 3.07 ± 0.097 | 3.21 ± 0.075
AKPFQVTKEYFQDVYDL [FAS1] | 2.96 ± 0.12 | 2.81 ± 0.074 | 2.4 ± 0.088 | 2.72 ± 0.063
NFLETIASTEKPENKTD [SIR4] | 2.94 ± 0.1 | 2.93 ± 0.089 | 2.77 ± 0.11 | 3.13 ± 0.092
LKLEYYNLLVKISLHKR [RPN5] | 1.38 ± 0.26 | 1.28 ± 0.26 |  | 1.13 ± 0.084
IDRNLKCQTCQEGMNEC [RPO21] | 2.48 ± 0.086 | 1.38 ± 0.061 | 2.56 ± 0.079 | 2.37 ± 0.079
KTESQDVETRVQNLEQT [DPB4] | 3.49 ± 0.091 | 3.32 ± 0.065 | 3.2 ± 0.047 | 3.24 ± 0.048
NYEIVFDTVSNKLFTEP [YMR129W/POM152] | 2.97 ± 0.055 | 3.02 ± 0.06 | 2.88 ± 0.055 | 3.03 ± 0.032
KLYDKTENDIKALQSIG [RPT4] | 2.65 ± 0.18 | 2.62 ± 0.2 | 1.87 ± 0.22 | 2.4 ± 0.22
FLQPLLLVGLIKTFYWL [NUT1] | 1.8 ± 0.051 | 2.3 ± 0.062 | 1.5 ± 0.089 | 1.8 ± 0.051
AENQTGESTVESEKLVT [RPC82] | 3.17 ± 0.089 | 3.29 ± 0.11 | 3.15 ± 0.11 | 3.45 ± 0.29
YERRFGPYFVGPVVAGI [PUP3] | 3.25 ± 0.22 | 2.81 ± 0.18 |  | 3.11 ± 0.16
QIVSYCSNNKNSIKNVP [SSN2] | 1.65 ± 0.083 | 2.14 ± 0.096 | 1.4 ± 0.096 | 1.79 ± 0.083
TDLTNNSTDGAKITEIG [YIL149C/MLP2] | 3.35 ± 0.087 | 3.17 ± 0.08 | 3.07 ± 0.058 | 3.28 ± 0.055
